# Source: article PMC3448795 (2012)
# T1: TRTK12 (CapZ peptide 265-276) (Homo sapiens, not fully specified)
# T1 chain: Ac-TRTKIDWNKILS-NH2
# T2: NDR(62-87), site 1 (Homo sapiens, not fully specified; Ca2+; peptide N-acetylated, C-amidated)
# T2 chain: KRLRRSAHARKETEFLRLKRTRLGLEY
# T3: HDM4(25-47) (Homo sapiens, not fully specified; Ca2+; peptide N-acetylated, C-amidated)
# T3 chain: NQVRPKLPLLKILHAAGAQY
# T4: NDR(62-87), site 2 (Homo sapiens, not fully specified; Ca2+; peptide N-acetylated, C-amidated)
# T4 chain: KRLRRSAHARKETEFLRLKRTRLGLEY
# T5: HDM2(25-47) (Homo sapiens, not fully specified; Ca2+; peptide N-acetylated, C-amidated)
# T5 chain: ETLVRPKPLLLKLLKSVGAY
# B1: S100B (protein)
# chain: SELEKAMVALIDVFHQYSGREGDKHKLKKSELKELINNELSHFLEEIKEQEVVDKVMETLDNDGDGECDFQEFMAFVAMVTTACHEFFEHE
# Key:
# [1] = biological target: T1, TRTK12 (CapZ peptide 265-276); assay: ITC
# NDR(62-87), site 1 = biological target: T2, NDR(62-87), site 1; assay: ITC
# HDM4(25-47) [2] = biological target: T3, HDM4(25-47); assay: ITC
# NDR(62-87), site 2 = biological target: T4, NDR(62-87), site 2; assay: ITC
# HDM2(25-47) [3] = biological target: T5, HDM2(25-47); assay: ITC
# [4] = biological target: T1, TRTK12 (CapZ peptide 265-276); assay: NMR line shape analysis
# HDM4(25-47) [5] = biological target: T3, HDM4(25-47); assay: NMR line shape analysis
# HDM2(25-47) [6] = biological target: T5, HDM2(25-47); assay: NMR line shape analysis
binder,measurement,setting,value
B1,Kd,[1],2000 nM
same,Kd,"NDR(62-87), site 1",400 nM
same,Kd,HDM4(25-47) [2],70 nM
same,Kd,"NDR(62-87), site 2",2000 nM
same,Kd,HDM2(25-47) [3],500 nM
same,Kd,[4],1000 nM
same,Kd,HDM4(25-47) [5],1000 nM
same,Kd,HDM2(25-47) [6],100 nM
